Experimental data taken from article PMC4599659.

Legend:
[1] = biological target: P22 coat protein (bacteriophage P22) (UniProt P26747); assay: SEC-MALS; P22-CYP VLPs from differential expression 2 (pBAD + pRSF; 0.125 % L-arabinose, then 0.3 mM IPTG) in E. coli, purified; HPLC-MALS-RI on WTC-100S5 column, 50 mM phosphate pH 7.2, 100 mM NaCl, 200 ppm sodium azide; CYP-SP per capsid by Eq. 1
[2] = biological target: P22 coat protein (bacteriophage P22) (UniProt P26747); assay: SEC-MALS; P22-CYP VLPs from co-expression (pETDuet) in E. coli, purified; HPLC-MALS-RI on WTC-100S5 column, 50 mM phosphate pH 7.2, 100 mM NaCl, 200 ppm sodium azide; CYP-SP per capsid by Eq. 1 (capsid mass taken as 19,572 kDa, CYP-SP 71.5 kDa)
[3] = biological target: P22 coat protein (bacteriophage P22) (UniProt P26747); assay: SEC-MALS; P22-CYP VLPs from differential expression 1 (pBAD + pRSF; 0.2 % L-arabinose, then 0.5 mM IPTG) in E. coli, purified; HPLC-MALS-RI on WTC-100S5 column, 50 mM phosphate pH 7.2, 100 mM NaCl, 200 ppm sodium azide; CYP-SP per capsid by Eq. 1

Chain of UniProt P26747 (P26747 whole entry): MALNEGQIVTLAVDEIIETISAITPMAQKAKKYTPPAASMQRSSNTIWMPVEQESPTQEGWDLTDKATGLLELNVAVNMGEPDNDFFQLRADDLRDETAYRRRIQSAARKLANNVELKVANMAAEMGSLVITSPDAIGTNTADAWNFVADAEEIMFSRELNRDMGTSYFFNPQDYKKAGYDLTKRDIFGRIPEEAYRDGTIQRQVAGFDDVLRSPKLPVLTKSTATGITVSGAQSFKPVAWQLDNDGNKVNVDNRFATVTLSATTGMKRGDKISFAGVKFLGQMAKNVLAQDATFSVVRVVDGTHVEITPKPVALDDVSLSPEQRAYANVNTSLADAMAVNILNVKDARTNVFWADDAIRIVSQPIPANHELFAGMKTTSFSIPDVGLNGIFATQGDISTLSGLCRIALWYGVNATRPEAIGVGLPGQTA

Q: For “CYPBM3 "21B3"-scaffold protein fusion (CYP-SP) (from UniProt P26748 141-303)”, which stoichiometry N [1] is on record?
A: The stoichiometry N was 110 CYP/capsid.

Q: And the stoichiometry N [2]?
A: The stoichiometry N was 156 CYP/capsid.

Q: What about the stoichiometry N [3] of the same substance?
A: Its stoichiometry N is 130 CYP/capsid.
